Article PMC7706287, “Targeting the myeloid checkpoint receptor SIRPα potentiates innate and adaptive immune responses to promote anti-tumor activity” (Journal of Hematology & Oncology, 2020)

Molecular target: T1, Ig-V domain of human SIRPα V1 (crystallography construct) (human, UniProt P78324-1)
T1 construct: Signal regulatory protein α, human, allele v1, IgV domain as crystallised; also called IgV domain of SIRPα v1
Test: crystal structure; Fab-SIRPα V1 complex at 11.3 mg/mL in 10 mM Tris pH 7.4, 50 mM NaCl; sitting drop, 0.1 M sodium acetate pH 4.0, 0.2 M ammonium sulfate, 18% PEG 4000; 2.27 Angstroms
Conditions: both partners purified

T1 sequence (P78324 33-147): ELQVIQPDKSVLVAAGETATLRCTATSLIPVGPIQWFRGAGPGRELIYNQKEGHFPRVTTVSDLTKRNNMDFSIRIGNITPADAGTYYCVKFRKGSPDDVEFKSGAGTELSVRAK

binding result: binds
B1: hAB21 anti-SIRPα Fab (Fab, V domains shown)
VH: DVQLVESGGGVVRPGESLRLSCEASGFTFSSNAMSWVRQAPGKGLEWVAGISSGSDTYYGDSVKGRLTISRDNSKNILYLQMNSLTAEDTAVYYCARETWNHLFDYWGQGTLVTVSS
VL: ELTQPPSVSVSPGQTARITCSGGSYSSYYYAWYQQKPGQAPVTLIYSDDKRPSNIPERFSGSSSGTTVTLTITGVQAEDEADYYCGGYDQSSYTNPFGGGTKLTVL
notes: Fab heavy chain; Fab light chain (humanized lambda); also called hAB21 Fab; Fab version of the antibody
